{
  "source": "patent US20260275311",
  "about": "“CRISPR NUCLEASE POLYPEPTIDES AND GENE EDITING SYSTEMS COMPRISING SUCH” (ARBOR BIOTECHNOLOGIES, INC., published 2026)",
  "test_in_all_cases": "cell_activity; PAM NGG; HEK293T",
  "conditions_in_all_cases": "tags: N- and C-terminal NLS",
  "key": {"Nuclease K D582R/G42R": {"target": "T1, Nuclease K D582R/G42R (D582R,G42R)", "T1 chain": "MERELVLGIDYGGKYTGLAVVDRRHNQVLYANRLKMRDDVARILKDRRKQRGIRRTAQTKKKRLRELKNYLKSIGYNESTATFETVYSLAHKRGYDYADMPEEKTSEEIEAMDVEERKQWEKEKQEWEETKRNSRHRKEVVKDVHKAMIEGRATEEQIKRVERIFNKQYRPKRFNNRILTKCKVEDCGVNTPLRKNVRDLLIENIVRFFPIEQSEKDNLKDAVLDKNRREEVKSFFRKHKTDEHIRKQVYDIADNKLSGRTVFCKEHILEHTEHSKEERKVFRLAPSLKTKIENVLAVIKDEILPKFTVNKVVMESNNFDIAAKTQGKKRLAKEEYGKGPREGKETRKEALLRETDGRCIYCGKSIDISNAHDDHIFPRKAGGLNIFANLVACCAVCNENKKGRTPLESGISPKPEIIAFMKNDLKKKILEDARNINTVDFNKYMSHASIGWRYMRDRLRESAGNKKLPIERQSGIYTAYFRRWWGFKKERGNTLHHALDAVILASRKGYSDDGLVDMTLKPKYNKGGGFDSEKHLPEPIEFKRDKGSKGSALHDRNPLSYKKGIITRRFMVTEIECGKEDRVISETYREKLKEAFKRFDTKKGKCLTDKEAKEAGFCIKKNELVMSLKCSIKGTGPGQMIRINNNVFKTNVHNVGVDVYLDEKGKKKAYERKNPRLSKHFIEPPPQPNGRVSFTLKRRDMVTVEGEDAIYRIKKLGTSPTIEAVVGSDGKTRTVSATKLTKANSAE", "procedure": "(§1) This Example describes indel assessment on mammalian targets using nuclease variants of Nuclease K comprising two or more substitutions identified as increasing indel activity in Example 8. 71 combination Nuclease K variants were tested.\n(§2) Each Nuclease K variant and RNA guide (see Table 19) was cloned as described in Example 8. HEK293T cells were further transfected, followed by NGS analysis, as described in Example 8. For each target, indel ratios, referring to the percentage of NGS reads comprising indels, were calculated for the reference Nuclease K (SEQ ID NO: 65) and for each Nuclease K variant. The indel ratios shown in Table 20 were calculated as the average of two bioreplicates, each of which contained two technical replicates."}, "[1]": {"target": "T2, Nuclease K D582R/I53R/T734R (D582R,I53R,T734R)", "T2 chain": "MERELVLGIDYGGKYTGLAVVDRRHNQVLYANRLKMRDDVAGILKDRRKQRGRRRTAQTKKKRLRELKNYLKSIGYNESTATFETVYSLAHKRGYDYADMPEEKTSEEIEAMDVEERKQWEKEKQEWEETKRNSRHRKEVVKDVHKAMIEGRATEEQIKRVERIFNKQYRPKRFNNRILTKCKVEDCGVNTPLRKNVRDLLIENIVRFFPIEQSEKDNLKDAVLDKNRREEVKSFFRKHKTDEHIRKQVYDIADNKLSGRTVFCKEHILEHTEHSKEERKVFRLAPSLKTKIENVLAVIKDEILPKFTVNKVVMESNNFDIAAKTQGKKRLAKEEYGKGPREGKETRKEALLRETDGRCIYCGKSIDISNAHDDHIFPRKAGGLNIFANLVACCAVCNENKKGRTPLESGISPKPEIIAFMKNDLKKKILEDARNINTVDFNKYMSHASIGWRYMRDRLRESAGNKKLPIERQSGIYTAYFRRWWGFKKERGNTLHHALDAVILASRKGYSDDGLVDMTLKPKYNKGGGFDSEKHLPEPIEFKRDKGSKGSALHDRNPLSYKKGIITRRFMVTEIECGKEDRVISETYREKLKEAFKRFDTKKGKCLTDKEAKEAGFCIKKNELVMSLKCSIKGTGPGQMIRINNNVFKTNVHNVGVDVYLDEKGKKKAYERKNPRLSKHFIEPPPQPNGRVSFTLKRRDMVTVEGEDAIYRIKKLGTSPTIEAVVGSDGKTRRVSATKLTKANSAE", "procedure": "as §1, §2"}, "Nuclease K G42R": {"target": "T3, Nuclease K G42R (G42R)", "T3 chain": "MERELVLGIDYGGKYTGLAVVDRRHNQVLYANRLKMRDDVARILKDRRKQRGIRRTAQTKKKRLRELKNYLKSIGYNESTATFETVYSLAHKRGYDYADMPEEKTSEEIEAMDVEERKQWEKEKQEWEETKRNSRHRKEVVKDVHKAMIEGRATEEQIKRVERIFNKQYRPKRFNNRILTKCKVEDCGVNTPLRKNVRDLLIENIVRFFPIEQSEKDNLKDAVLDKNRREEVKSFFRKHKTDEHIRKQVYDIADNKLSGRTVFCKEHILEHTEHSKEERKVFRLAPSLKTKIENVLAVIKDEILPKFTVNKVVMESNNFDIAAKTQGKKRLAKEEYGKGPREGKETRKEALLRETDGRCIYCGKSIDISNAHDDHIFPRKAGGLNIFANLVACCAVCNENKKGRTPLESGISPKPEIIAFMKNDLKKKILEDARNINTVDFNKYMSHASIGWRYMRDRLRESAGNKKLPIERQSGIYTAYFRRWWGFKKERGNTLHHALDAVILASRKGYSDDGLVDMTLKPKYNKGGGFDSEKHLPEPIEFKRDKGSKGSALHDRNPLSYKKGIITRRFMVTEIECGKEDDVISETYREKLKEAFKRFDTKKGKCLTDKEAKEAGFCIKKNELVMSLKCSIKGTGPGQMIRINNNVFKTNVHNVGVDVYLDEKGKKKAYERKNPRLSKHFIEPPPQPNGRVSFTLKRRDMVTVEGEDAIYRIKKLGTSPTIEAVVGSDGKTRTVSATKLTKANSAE"}},
  "data": [
    {"binder": "Nuclease K AAVS1-T3 guide ; AAVS1-T3 target (ssRNA ; dsDNA) RNA: UUGUGAGAAUGGUGCGUCCUGUUACAGUUAAGGCUCUGAAAAGAGCCUUAAUUGUAAAACGCCUAUACAGUGAAGGGAUAUACGCUUGGGUUUGUCCAGCCUGAGCCUCUAUGCCAGAAAUGGCGCCUUCAUCGUGGGUUAGGACAUUUAAAUUUAAAAACUAUUCAGCACUGUUUGCUCUUGUCAGCUUGGUGGCAGA DNA 1: TTGTGAGAATGGTGCGTCCT DNA 2: AGGACGCACCATTCTCACAA", "values": [
      {"measurement": "activity", "setting": "Nuclease K D582R/G42R", "result": 0.221, "unit": "indel ratio"},
      {"measurement": "activity", "setting": "[1]", "result": 0.27, "unit": "indel ratio"},
      {"measurement": "binding signal", "setting": "Nuclease K G42R", "result": 3.94, "unit": "fold vs Nuclease K"}
    ]},
    {"binder": "Nuclease K EMX1-T7 guide ; EMX1-T7 target (ssRNA ; dsDNA) RNA: CUUUAGCAAGGGACUAUUCAGUUACAGUUAAGGCUCUGAAAAGAGCCUUAAUUGUAAAACGCCUAUACAGUGAAGGGAUAUACGCUUGGGUUUGUCCAGCCUGAGCCUCUAUGCCAGAAAUGGCGCCUUCAUCGUGGGUUAGGACAUUUAAAUUUAAAAACUAUUCAGCACUGUUUGCUCUUGUCAGCUUGGUGGCAGA DNA 1: CTTTAGCAAGGGACTATTCA DNA 2: TGAATAGTCCCTTGCTAAAG", "values": [
      {"measurement": "activity", "setting": "Nuclease K D582R/G42R", "result": 0.231, "unit": "indel ratio"},
      {"measurement": "activity", "setting": "[1]", "result": 0.25, "unit": "indel ratio"},
      {"measurement": "binding signal", "setting": "Nuclease K G42R", "result": 5.3, "unit": "fold vs Nuclease K"}
    ]}
  ]
}
